From patent publication US20250163183A1 (COAGULANT THERAPEUTICS, published 2025)

T1: FVIIa (UniProt P08709 61-466)
T1 construct: also called factor VIIa
T1 sequence (looked up): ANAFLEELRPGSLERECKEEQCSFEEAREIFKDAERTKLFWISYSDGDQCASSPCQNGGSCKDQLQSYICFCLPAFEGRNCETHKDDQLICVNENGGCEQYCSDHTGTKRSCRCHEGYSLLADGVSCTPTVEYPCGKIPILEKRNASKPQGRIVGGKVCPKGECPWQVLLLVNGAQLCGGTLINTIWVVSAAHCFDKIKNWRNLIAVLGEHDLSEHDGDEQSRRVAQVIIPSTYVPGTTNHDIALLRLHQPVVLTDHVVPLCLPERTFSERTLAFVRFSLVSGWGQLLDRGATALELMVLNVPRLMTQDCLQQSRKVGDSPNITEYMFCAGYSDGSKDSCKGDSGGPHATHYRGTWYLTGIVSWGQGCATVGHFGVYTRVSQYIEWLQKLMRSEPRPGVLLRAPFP


How the values were obtained:
[1] = target: T1, FVIIa; test: ELISA, FVIIa coated at 10 µg/mL, HRP-anti-V5, n=3
[2] = target: T2, FXIa (UniProt P03951 19-625); test: ELISA, FXIa coated at 10 µg/mL, HRP-anti-V5, n=3
T2 construct: also called factor XIa
T2 sequence (P03951 19-625 limits assumed): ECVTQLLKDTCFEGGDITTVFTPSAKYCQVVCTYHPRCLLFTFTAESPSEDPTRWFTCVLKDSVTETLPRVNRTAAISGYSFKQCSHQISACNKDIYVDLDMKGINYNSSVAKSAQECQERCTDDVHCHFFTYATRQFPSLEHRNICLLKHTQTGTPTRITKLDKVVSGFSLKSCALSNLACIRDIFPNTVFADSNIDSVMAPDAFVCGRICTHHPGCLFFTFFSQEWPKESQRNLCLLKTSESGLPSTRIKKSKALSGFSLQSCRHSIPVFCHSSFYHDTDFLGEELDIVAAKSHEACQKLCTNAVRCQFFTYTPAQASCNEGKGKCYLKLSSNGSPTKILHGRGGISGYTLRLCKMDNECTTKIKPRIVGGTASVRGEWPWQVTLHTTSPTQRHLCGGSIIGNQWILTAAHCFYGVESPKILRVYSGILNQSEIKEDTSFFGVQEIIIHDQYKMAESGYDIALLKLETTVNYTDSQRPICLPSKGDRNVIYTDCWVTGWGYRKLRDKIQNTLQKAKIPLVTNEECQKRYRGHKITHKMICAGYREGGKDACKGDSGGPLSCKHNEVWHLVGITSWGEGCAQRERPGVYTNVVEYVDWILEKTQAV

[3] = target: T3, human activated protein C (APC) (human, UniProt P04070 43-461); test: BLI, VHH captured via anti-V5, APC in solution
T3 construct: Bought (Haematologic Technologies; plasma-derived from Enzyme Research Laboratories); Two-chain disulfide-linked protease
T3 sequence (P04070 other isoform, or with tags, fused parts or gaps): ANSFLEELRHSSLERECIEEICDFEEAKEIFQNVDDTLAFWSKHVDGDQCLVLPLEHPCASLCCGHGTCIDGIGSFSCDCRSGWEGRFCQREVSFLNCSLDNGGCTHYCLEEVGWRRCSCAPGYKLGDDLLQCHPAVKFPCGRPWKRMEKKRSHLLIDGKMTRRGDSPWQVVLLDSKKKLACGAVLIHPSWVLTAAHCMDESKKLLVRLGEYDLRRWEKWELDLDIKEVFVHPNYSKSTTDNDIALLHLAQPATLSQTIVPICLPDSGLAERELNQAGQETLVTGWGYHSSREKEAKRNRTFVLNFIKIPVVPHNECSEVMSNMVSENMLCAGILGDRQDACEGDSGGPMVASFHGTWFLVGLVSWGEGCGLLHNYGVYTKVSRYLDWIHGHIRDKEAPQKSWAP

[4] = target: T3, human activated protein C (APC); test: BLI (Octet): nanobody captured on anti-V5 sensor, dipped in 500 nM APC; buffer sensor reads 0.06
[5] = target: T3, human activated protein C (APC); test: cell-based or functional assay
[6] = target: T4, human protein C (PC) zymogen (human, UniProt P04070 43-197; P04070 200-461); test: ELISA
T4 construct: Bought
T4 sequence (P04070 43-197, chain 1 of 2): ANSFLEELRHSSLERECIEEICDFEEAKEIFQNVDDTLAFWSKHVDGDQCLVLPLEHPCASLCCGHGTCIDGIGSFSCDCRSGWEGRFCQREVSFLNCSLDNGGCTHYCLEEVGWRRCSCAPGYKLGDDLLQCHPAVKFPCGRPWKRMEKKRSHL
T4 sequence (P04070 200-461, chain 2 of 2): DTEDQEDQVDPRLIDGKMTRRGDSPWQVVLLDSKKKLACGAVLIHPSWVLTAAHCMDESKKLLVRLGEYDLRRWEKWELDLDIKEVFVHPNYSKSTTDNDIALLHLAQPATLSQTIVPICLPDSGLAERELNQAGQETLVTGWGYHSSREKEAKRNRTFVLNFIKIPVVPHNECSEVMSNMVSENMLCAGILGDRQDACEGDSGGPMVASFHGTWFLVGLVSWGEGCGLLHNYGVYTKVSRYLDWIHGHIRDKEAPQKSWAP

[7] = target: T5, human APC-PPACK (active site-blocked APC) (human, UniProt P04070 43-461, active site bound by the tripeptide inhibitor Phe-Pro-Arg-chloromethylketone (PPACK)); test: ELISA
T5 construct: Bought (Haematologic Technologies)
T5 sequence (P04070 other isoform, or with tags, fused parts or gaps): as the sequence (P04070 other isoform, or with tags, fused parts or gaps) above

Binder	binding result [6]	binding result [7]	also measured
LP16 (SR16983-R4-P1-A04) (VHH, not shown: small tags and cut ends, Llama VHH purified from E. coli periplasm) VHH: QLQLVESGGGLVEAGGSLRLSCAVSGTTFSANTMVWHRQAPGKQREWVARISSSGTTNYADSVRGRFSLSRGNAKNTVYLQMNSLKPDDTAVYYCNAILPSRSIWGRGTQVTVSS			binding result [1]: no binding (tested: 2 µg/mL); binding result [2]: no binding (tested: 2 µg/mL)
LP1 (SR16983-R2-P3-D06) (VHH, not shown: small tags and cut ends, Llama VHH purified from E. coli periplasm) VHH: QLQLVESGGGLVQAGGSLRLSCAASGSTFPINVFAWYRQAPGEQRELGELVAFIGRSGTTNYGDSVKGRFTISRDNAKNTVYLQMDSLRPEDTAVYYCNLGDYWGQGTQVTVSS			Kd [3]: 15 nM; koff [3]: 0.009 s⁻¹; kon [3]: 590000 M⁻¹ s⁻¹; APC binding (nm) [4]: 0.32 nm; APC-mediated histone H3 cleavage, 500 nM nanobody [5]: < 75 % residual activity
LP17 (SR16983-R4-P1-A09) (VHH, not shown: small tags and cut ends, Llama VHH purified from E. coli periplasm) VHH: QLQLVESGGGLVQPGGSLRLSCAASGTTSSLNLMGWYRQAPGKKRESVAHMTSDGRTDYVDSVKGRFTISRDNSKNTVYLQMNNLKPEDTAVYICYANPFLGSWSNYWGQGTQVTVSS			binding result [1]: no binding (tested: 2 µg/mL); binding result [2]: no binding (tested: 2 µg/mL)
LP14 (SR16983-R3-P4-A06) (VHH, not shown: small tags and cut ends, Llama VHH purified from E. coli periplasm) VHH: QLQLVESGGGLVQAGGSLRLSCTASGSTSSIVIISWYRQAPGEQRDLVATINNGGDVDVADFVKGRFTISRDNAKNAVYLQMNNLKPEDTAVYYCSARTPSLRVTWFWGQGTQVTVSS			binding result [1]: no binding (tested: 2 µg/mL); binding result [2]: no binding (tested: 2 µg/mL)
SR16983-R2P1C11 (VHH) VHH: QLQLVESGGGLVQSGGSLRLSCTASGSTVRVTAGGWYRQAPGNERELVADIDNGGRPTYADSVKGRFTISRDNAKNAVDLQMNNLKPEDTAVYYCFVIAIPDSAPRPRAYWGQGTQVTVSS	no binding	binds	
SR16983-R2-P2-G09 (VHH) VHH: QLQLVESGGGLVQAGGSLRLSCVASGTTFSIEETYWYRLAPGKQRELVAVISGGGNTNYADSVKGRFTISRDNAKNTVYLQMNSLKPEDTAVYYCSARTIATVKWGQGIQVTVSS	no binding	binds	
SR16983-R2-P4-B05 (VHH) VHH: QVQLVESGGGLVQAGGSLRLSCAASGRVFGTYVMGWFRQAPGKEREFVAAFSRSTGHITYADSVKGRFTISRDDAKNTLYLQMNSLKPEDTAVYYCATRASINYNYANWPYWGQGTQVTVSS	no binding	binds	
SR16983-R3-P4-E04 (VHH) VHH: QVQLVESGGGLVQAGGSLRLSCAASGRTVGSYAVGWFRQAPGKEREFLAASSRSTGNTVYADSVKGRFTISRDDAKNTLYLQMNSLKPEDTAVYYCATRASINYNYANWPYWGQGTQVTVSS	no binding	binds	
SR16983-R2-P4-G01 (VHH) VHH: QLQLVESGGGLVQAGGSLRLSCAASGRTVGSYVMGWFRQAPGKEREFLAANSRSTGNTVYADSVKGRFTISRDDAKNTLYLQMNSLKPEDTAVYYCATRASINYNYANWPYWGQGTQVNVSS	no binding	binds	
SR16983-R2P1C10 (VHH) VHH: QLQLVESGGGLVQPGGSLRLSCAASGRIFGSYVMGWFRQAPGKEHEFVAASSRSTGNTVYLDSVKGRFTISRDDAKNTLYLQMNSLKPEDTAVYYCATRASINYNYANWPYRGQGTQVTVSS	no binding	binds	
SR16983-R3P2A9 (VHH) VHH: QVQLVESGGGLVQAGGSLRLSCAASGRTVGSYVMGWFRQAPGKERELLAASSRSTGNTVYADSVKGRFTISRDDAKNTVFLQMNSLKPEDTAVYYCAARASINYNYANWPYWGQGTQVTVSP	no binding	binds	
SR16983-R3P2G9 (VHH) VHH: QVQLVESGGGLVQPGGSLRLSCAASGRTFGSYVMGWFRQAPGKEREFVAAASRSTGNTVYPDSVKGRFTISRDDAKNTLYLQMNSLKPEDTAVYYCAARASINYNYANWPYWGQGTQVTVSS	no binding	binds	
LP5 (SR16983-R3-P2-F04) (VHH, not shown: small tags and cut ends, Llama VHH purified from E. coli periplasm) VHH: QVQLVESGGGLVQHGGSLRLSCAVSGSIFTTATMAWYRQAPGKQRDWVAVITTGGSTRYADDVKGRFAISRDNAKNTVYLQMNNLKPEDTAVYYCNAATRLSSTNYWGQGTQVSVSS			binding result [1]: no binding (tested: 2 µg/mL); binding result [2]: no binding (tested: 2 µg/mL)
SR16983-R3-P2-A08 (VHH) VHH: QVQLVESGGGLVQAGGSLRLSCAASGRTSSNYNMGWFRQAPGKEREFVAAIPWTGSTTYYADPVKGRFTISRDSTKNTGDLQMNSLKPEDTAVYYCALGRRENYYALLQQRGYDYWGQGTQVTVSS	no binding	binds	
LP6 (SR16983-R3-P2-F11) (VHH, not shown: small tags and cut ends, Llama VHH purified from E. coli periplasm) VHH: QLQLVESGGGLVQPGGSLRLSCAASGSIGRLNVMGWFRQAPGKQRELVAVISSDNKKDYADSVQGRFTISRDNSKNTVYLQMNSLKPEDTAVYYCNVRWTMGGNYWGQGTQVTVSS			binding result [1]: no binding (tested: 2 µg/mL); binding result [2]: no binding (tested: 2 µg/mL)
SR16983-R2-P4-G02 (VHH) VHH: QLQLVESGGGLVQAGGSLRLSCAASGTTFSFVYMGWYRQAPGNQRDLVARISSDGSTNYADSVKGRFTISGDNAKNTVYLQMNSLRPEDTARYYCFYNGHLNKWGQGTQVTVSS	no binding	binds	
LP21 (SR16983-R4-P1-D01) (VHH, not shown: small tags and cut ends, Llama VHH purified from E. coli periplasm) VHH: QLQLVESGGGLVQAGESLRLSCVLSGSTFGRNVITWYRQPPGKQREFIAMITTSGSTRYADSVKGRFTMSRDTAKNTAFLQMSNLKLEDTAVYYCWTAIAGQGEYWGQGTQVTVSS			binding result [1]: no binding (tested: 2 µg/mL); binding result [2]: no binding (tested: 2 µg/mL)

Further lines, with some results ahead:

binding result [6]	binding result [7]	Binder	also measured
no binding	binds	SR16983-R3-P3-F01 (VHH) VHH: EVQLVESGGGLVQAGDSLRLSCARSGLTASTYAMAWFRQAPGKEREFVSVIDWKGDTTYANSVKGRFTISRDNGKNTVYLQMNSLQPEDTALYYCAARGSPAYVARLYAYWGRGTQVTVSS	
no binding	binds	SR16983-R3-P4-A08 (VHH) VHH: QLQLVESGGGLVQAGDSLRLSCVFSGLTASTYAMAWFRQAPGKEREFVSVIDWKGDTTYANSVKGRFTISRDNGNKTVYLQMNSLQPEDTALYYCAARGSPGYVARLYAHWGRGTQVTVSS	
no binding	binds	SR16983-R2P1F04 (VHH) VHH: QLQLVESGGGLVQAGGSLRLSCAASRTTFSFNYMGWYRQAPGNQRDLVARISSGGITNYADSVKGRFTISGDNAKNTVYLQMNSLKPEDTARYYCFYNGHLNKWGQGTQVTVSS	
no binding	binds	SR16983-R3-P5-A11 (VHH) VHH: QVQLVESGGGLVQAGGSLGLSCAASGTTFSFVYMGWYRQAPGNQRDLVARISSDGSTNYADSVKGRFTISGDNAKNTVYLQMNNLKPEDTARYYCFYNGHVNKWGQGTQVTVSS	
no binding	binds	SR16983-R3P2B6 (VHH) VHH: QLQLVESGGGLVQAGGSLRLACAASGFSFDDYAIGWFRQAPGKEREGVSCITSDGSTYYADSVKGRFTISSDNAKNTVYLQMNILKPEDTAVYYCARGGLLLPKPELFEYWGQGTQVTVSS	
no binding	binds	SR16983-R3P2E7 (VHH) VHH: QLQLVESGGGLVQAGGSLRLSCVASGTTFTIEDIGWYRLAPGKQRELVAIISGGNTNYADSVKGRFTISRDNAKNTVFLQMNSLKPEDTAVYYCNARTKATAKWGRGIQVTVSS	
no binding	binds	SR16983-R3P2E05 (VHH) VHH: QVQLVESGGGLVQAGGSLRLSCTTSGSTFSITAGGWYRQAPGEQRELVADVANDGSTSYAESVKGRFTISRDNAKNIVELQMSSLELEDTAVYVCFVVGISDSTPRPRAYWGQGTQVTVAS	
